Consider one molecule from patent US9289444B2, “Composition for promoting hematogenesis containing quercetin 3-O-β-(2″-galloyl)-rhamnopyranoside as active ingredient” (Chungbuk National University Industry Academic Cooperation …, priority 2011, dated 2016).

For the assay, the system named is BMNCs. Put plainly: Histochemistry (Wright-Giemsa) and immunocytochemistry for erythroid cells (TER-119). Format: cell-based, mouse. The following applies: 7 days culture, Wright-Giemsa staining. The method, then:
In order to investigate whether QGR can stimulate the differentiation of hematopoietic stem cells into erythroid cells, the morphology of cells was observed and immunocytochemistry against TER-119, the marker of erythroid progenitors, was carried out. BMNCs were harvested 7 days after incubation with either rEpo (3 units/ml) or QGR (100 or 200 μM/ml) washed with PBS, re-suspended at a concentration of 2×10^5 cells/ml in PBS and subjected (100 μl/slide) to cytospin for 5 min at 1,000 rpm (Cytospin3; Shandon, ThermoElectron, Waltham, Mass., USA). All slides were fixed using cold methanol. Wright-Giemsa stain was performed for morphologic analysis. Immunocytochemistry against TER-119 was carried out for cellular lineage with 100-fold dilution according to the manufacturer's instruction using avidin biotinylated enzyme complex kit (VECTASTAIN, Vector Laboratories and Burlingame, Calif., USA).

B1: positive control group: mouse recombinant Epo (rEpo, 3 units/ml), positive control in the erythroid differentiation tests (protein, UniProt P07321 27-192, looked up)
Erythropoietin: APPRLICDSRVLERYILEAKEAENVTMGCAEGPRLSENITVPDTKVNFYAWKRMEVEEQAIEVWQGLSLLSEAILQAQALLANSSQPPETLQLHIDKAISGLRSLTSLLRVLGAQKELMSPPDTTPPAPLRTLTVDTFCKLFRVYANFLRGKLKLYTGEVCRRGDR
Take B1: the “number of enucleated erythroid cells” value is “increased”.
